According to patent US20150361183A1 (IMPERIAL INNOVATIONS, published 2015):

B1: CFHR1 (complement factor H-related protein 1), purified from serum (other)
chain: EATFCDFPKINHGILYDEEKYKPFSQVPTGEVFYYSCEYNFVSPSKSFWTRITCTEEGWSPTPKCLRLCFFPFVENGHSESSGQTHLEGDTVQIICNTGYRLQNNENNISCVERGWSTPPKCRSTDTSCVNPPTVQNAHILSRQMSKYPSGERVRYECRSPYEMFGDEEVMCLNGNWTEPPQCKDSTGKCGPPPPIDNGDITSFPLSVYAPASSVEYQCQNLYQLEGNKRITCRNGQWSEPPKCLHPCVISREIMENYNIALRWTAKQKLYLRTGESAEFVCKRGYRLSSRSHTLRTTCWDGKLEYPTCAKR

How the values were obtained:
C3b [1] = target: T1, C3b (UniProt P01024 749-1663; P01024 23-667); assay: cell-based or functional assay
T1 sequence (P01024 749-1663 limits assumed, chain 1 of 2): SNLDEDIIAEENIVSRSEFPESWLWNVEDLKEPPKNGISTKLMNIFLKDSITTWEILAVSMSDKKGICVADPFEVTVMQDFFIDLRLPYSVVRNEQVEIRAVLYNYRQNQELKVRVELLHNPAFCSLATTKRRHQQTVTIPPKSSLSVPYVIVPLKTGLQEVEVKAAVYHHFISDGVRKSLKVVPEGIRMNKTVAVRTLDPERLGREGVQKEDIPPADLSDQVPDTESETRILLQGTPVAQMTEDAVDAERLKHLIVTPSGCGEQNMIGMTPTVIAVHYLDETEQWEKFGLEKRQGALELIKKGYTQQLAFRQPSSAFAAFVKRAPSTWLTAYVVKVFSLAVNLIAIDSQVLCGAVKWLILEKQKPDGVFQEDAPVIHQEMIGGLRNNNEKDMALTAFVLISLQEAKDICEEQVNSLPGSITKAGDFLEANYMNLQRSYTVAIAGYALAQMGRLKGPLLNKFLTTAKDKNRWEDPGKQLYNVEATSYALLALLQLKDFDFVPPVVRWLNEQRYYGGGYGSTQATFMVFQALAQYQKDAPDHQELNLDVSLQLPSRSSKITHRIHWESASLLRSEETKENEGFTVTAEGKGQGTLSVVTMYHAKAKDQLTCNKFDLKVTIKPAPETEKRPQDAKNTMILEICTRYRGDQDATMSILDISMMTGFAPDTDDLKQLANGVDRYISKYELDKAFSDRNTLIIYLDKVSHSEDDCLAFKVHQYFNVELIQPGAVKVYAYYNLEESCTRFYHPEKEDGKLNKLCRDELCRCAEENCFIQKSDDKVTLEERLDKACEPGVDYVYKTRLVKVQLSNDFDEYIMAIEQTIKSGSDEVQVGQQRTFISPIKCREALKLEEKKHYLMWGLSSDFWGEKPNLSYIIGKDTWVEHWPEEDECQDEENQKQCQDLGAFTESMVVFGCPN
T1 sequence (P01024 23-667 limits assumed, chain 2 of 2): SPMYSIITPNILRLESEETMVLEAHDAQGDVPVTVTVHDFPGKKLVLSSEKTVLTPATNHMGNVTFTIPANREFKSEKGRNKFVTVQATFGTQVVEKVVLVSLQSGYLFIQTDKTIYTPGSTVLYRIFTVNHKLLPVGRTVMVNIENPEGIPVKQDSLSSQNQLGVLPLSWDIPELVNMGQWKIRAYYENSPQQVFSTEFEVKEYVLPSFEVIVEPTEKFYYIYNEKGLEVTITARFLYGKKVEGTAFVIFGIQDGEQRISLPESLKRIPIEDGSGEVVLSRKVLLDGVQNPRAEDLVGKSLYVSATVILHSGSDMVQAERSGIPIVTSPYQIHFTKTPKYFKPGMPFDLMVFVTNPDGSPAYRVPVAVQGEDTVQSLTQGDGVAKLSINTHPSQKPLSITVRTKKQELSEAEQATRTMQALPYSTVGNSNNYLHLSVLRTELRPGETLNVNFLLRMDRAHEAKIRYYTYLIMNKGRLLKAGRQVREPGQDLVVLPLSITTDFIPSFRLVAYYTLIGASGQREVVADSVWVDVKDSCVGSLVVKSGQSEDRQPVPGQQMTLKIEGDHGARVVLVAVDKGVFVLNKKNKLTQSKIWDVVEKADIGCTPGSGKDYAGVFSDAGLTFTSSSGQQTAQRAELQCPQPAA

[2] = target: the molecule itself; assay: size exclusion chromatography
Description: FIG. 3(a) Generation of a CFHR5 protein lacking critical amino acids within the dimerisation motif. Monomeric CFHR5 (CFHR5^{dimer mutant}) was generated by mutating the three stabilizing amino acids (Tyr34Ser, Ser36 Tyr, Tyr39Glu) within the dimerisation motif to the corresponding amino acids within CFH. FIG. 3(b) Analysis of recombinant CFHR5 and CFHR5^{dimer mutant} using SDS PAGE gel electrophoresis. Both the wild type and dimer mutants were purified to single homogenous species as visualized by denaturing electrophoresis. FIG. 3(c) Analysis of recombinant CFHR5 and CFHR5^{dimer mutant} using size exclusion chromatography. Size exclusion chromatography was performed on a Superdex200 10/30 column (GE Healthcare) equilibrated in 50 mM Tris.HCl, pH 7.5, 150 mM NaCl at 0.4 ml/min. The column was followed in-line by an Optilab-Rex refractive index monitor (Wyatt Technologies). The CFHR5 dimer elutes early from the column (blue trace) whilst the monomeric CFHR5^{dimer mutant} protein elutes at a larger column volume (red trace). FIG. 3(d) Interaction of CFHR5 and CFHR5^{dimer mutant} with renal-bound mouse C3 in vivo.

C3b [3] = target: T1, C3b; assay: SPR steady state, thioester-coupled (clustered) C3b against amine-coupled C3b
Description: FIG. 9(a) Binding of CFHR5 and CFH to low levels of C3b coupled through amine groups (no clustering of C3b). CFH (from 4 μM) or CFHR5 (from 6.6 μM) were flowed across immobilized C3b (400 RU) at different concentrations. Affinity was calculated by steady state analysis. Analysis assumes a 1:1 binding interaction and for CFHR5 calculations used molarity of binding sites. FIG. 9(b) Binding to C3b coupled through the thiolester. C3b (150RU) was amine-coupled to a CM5 Biacore chip and used as a nidus for convertase formation. Further C3b was deposited on the chip surface by flowing fB and fD to form C3bBb followed by C3 as convertase substrate. […] CFH (from 4 μM) and CFHR5 (from 1.35 μM) were flowed across the surface and binding was analysed at steady state. Binding of CFH was very heterogeneous, likely due to crosslinking between multiple C3b-binding sites on fH and clusters of deposited C3b molecules. Affinity could not be calculated under these conditions. […] Data were calculated using the following values: CFH, mass 155 kDa, extinction coefficient 1.95 cm-1 (mg/mL)-1; CFHR5, mass 65 kDa, extinction coefficient 1.55 cm-1 (mg/mL)-1;
All data in FIGS. 9-11 were gathered using a Biacore T100 (GE Healthcare). […] For kinetic studies, samples were injected using the KINJECT command, in HBS/P (10 mM HEPES pH7.4, 150 mM NaCl, 0.05% surfactant-P20) flowed at 30 μl/min and analysed at 25° C. […]

iC3b = target: T2, iC3b (UniProt P01024 23-667; P01024 749-1303; P01024 1321-1663); assay: SPR steady state, iC3b on chip; reference CFHR5
T2 construct: also called thioester-coupled iC3b
T2 sequence (P01024 23-667, chain 1 of 3): as the sequence (P01024 23-667 limits assumed, chain 2 of 2) above
T2 sequence (P01024 749-1303, chain 2 of 3): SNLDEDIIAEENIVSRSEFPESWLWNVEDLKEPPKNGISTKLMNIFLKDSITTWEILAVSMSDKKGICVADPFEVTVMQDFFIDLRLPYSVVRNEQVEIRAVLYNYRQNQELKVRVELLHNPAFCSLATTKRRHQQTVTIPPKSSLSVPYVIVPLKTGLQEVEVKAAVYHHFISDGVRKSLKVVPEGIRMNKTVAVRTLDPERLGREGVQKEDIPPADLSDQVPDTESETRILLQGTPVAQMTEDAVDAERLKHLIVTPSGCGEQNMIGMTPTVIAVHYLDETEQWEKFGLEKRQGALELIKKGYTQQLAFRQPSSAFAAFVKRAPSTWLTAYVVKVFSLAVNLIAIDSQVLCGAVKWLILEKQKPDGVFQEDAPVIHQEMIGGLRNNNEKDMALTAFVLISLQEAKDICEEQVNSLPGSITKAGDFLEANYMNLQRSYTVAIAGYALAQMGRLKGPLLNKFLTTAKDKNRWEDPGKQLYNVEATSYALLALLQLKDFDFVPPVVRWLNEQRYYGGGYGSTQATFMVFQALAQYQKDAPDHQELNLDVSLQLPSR
T2 sequence (P01024 1321-1663, chain 3 of 3): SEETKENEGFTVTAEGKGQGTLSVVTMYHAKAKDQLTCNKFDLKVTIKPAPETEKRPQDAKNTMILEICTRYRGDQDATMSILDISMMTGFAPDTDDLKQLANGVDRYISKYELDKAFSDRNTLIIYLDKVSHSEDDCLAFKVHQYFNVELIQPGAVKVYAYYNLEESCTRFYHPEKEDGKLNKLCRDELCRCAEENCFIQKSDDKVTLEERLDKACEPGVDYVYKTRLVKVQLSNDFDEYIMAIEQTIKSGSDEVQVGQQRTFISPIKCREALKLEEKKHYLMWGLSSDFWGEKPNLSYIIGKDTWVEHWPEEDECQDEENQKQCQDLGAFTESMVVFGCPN

[4] = target: B1; assay: serum immunoprecipitation with anti-CFHR2, western blot with MBC125
Description: Serum was immunoprecipitated using a specific anti-CFHR2 antibody (MBC22) and western blot analysis of the immunoprecipitated material with anti-CFHR1/2/5 antibody (MBC125) performed. […] Lane 2 and 4 represent control sera in which no anti-CFHR2 antibody was used. The detection of CFHR2-CFHR5 heterodimers was not possible due to non-specific bands in the CFHR5 region. […] Serum was immunoprecipitated using an anti-CFHR5 antibody and western blot analysis of the immunoprecipitated material with anti-CFHR1/2/5 antibody performed. […] Lane 2 and 4 represent control sera in which no anti-CFHR5 antibody was used. The detection of CFHR2-CFHR5 heterodimers was not possible due to non-specific bands in the CFHR2 region. FIG. 2(d) ELISA assay to detect CFHR2-CFHR5 heterodimers in vivo. Using an anti-CFHR5 capture antibody and an anti-CFHR2 detection antibody, positive signal was demonstrable in two individuals homozygous for the ΔCFHR3-1 deletion polymorphism. A much weaker signal was detectable in individuals without this deletion.
Detection of heterodimers CFHR1-CFHR2 and CFHR1-CFHR5 were identified by immunoprecipitation. […]

Row | Binder | IC50, dose-dependent increase of lysis in the CFH-dependent alternative pathway haemolytic assay (guinea-pig erythrocytes, 20% normal human serum plus CFH) (C3b [1]) [µM] | also measured
1 | B1 | 0.7 | 
2 | CFHR5 (complement factor H-related protein 5), wild type (other, Recombinant full-length protein from HEK293 cells, a dimer by size exclusion; The same id is used for native serum CFHR5 in the heterodimer experiments; also called recombinant CFHR5; wild-type CFHR5) EGTLCDFPKIHHGFLYDEEDYNPFSQVPTGEVFYYSCEYNFVSPSKSFWTRITCTEEGWSPTPKCLRMCSFPFVKNGHSESSGLIHLEGDTVQIICNTGYSLQNNEKNISCVERGWSTPPICSFTKGECHVPILEANVDAQPKKESYKVGDVLKFSCRKNLIRVGSDSVQCYQFGWSPNFPTCKGQVRSCGPPPQLSNGEVKEIRKEEYGHNEVVEYDCNPNFIINGPKKIQCVDGEWTTLPTCVEQVKTCGYIPELEYGYVQPSVPPYQHGVSVEVNCRNEYAMIGNNMITCINGIWTELPMCVATHQLKRCKIAGVNIKTLLKLSGKEFNHNSRIRYRCSDIFRYRHSVCINGKWNPEVDCTEKREQFCPPPPQIPNAQNMTTTVNYQDGEKVAVLCKENYLLPEAKEIVCKDGRWQSLPRCVESTAYCGPPPSINNGDTTSFPLSVYPPGSTVTYRCQSFYKLQGSVTVTCRNKQWSEPPRCLDPCVVSEENMNKNNIQLKWRNDGKLYAKTGDAVEFQCKFPHKAMISSPPFRAICQEGKFEYPICE | 0.15 | binding result [2]: binds; fold tighter binding to thioester-coupled C3b than to amine-coupled C3b (C3b [3]): 10 fold
3 | CFHR1345 (recombinant CFHR1 domains 3-5) (other) TSCVNPPTVQNAHILSRQMSKYPSGERVRYECRSPYEMFGDEEVMCLNGNWTEPPQCKDSTGKCGPPPPIDNGDITSFPLSVYAPASSVEYQCQNLYQLEGNKRITCRNGQWSEPPKCLHPCVISREIMENYNIALRWTAKQKLYLRTGESAEFVCKRGYRLSSRSHTLRTTCWDGKLEYPTCAKR | 3.6 | 
4 | CFHR234 (recombinant CFHR2 domains 3-4) (other) EKCGPPPPIDNGDITSFLLSVYAPGSSVEYQCQNLYQLEGNNQITCRNGQWSEPPKCLDPCVISQEIMEKYNIKLKWTNQQKLYSRTGDIVEFVCKSGYHPTKSHSFRAMCQNGKLVYPSCEEK | 4.7 | 
5 | Complement factor H (CFH) (other, UniProt P08603 19-1231, looked up) EDCNELPPRRNTEILTGSWSDQTYPEGTQAIYKCRPGYRSLGNVIMVCRKGEWVALNPLRKCQKRPCGHPGDTPFGTFTLTGGNVFEYGVKAVYTCNEGYQLLGEINYRECDTDGWTNDIPICEVVKCLPVTAPENGKIVSSAMEPDREYHFGQAVRFVCNSGYKIEGDEEMHCSDDGFWSKEKPKCVEISCKSPDVINGSPISQKIIYKENERFQYKCNMGYEYSERGDAVCTESGWRPLPSCEEKSCDNPYIPNGDYSPLRIKHRTGDEITYQCRNGFYPATRGNTAKCTSTGWIPAPRCTLKPCDYPDIKHGGLYHENMRRPYFPVAVGKYYSYYCDEHFETPSGSYWDHIHCTQDGWSPAVPCLRKCYFPYLENGYNQNYGRKFVQGKSIDVACHPGYALPKAQTTVTCMENGWSPTPRCIRVKTCSKSSIDIENGFISESQYTYALKEKAKYQCKLGYVTADGETSGSITCGKDGWSAQPTCIKSCDIPVFMNARTKNDFTWFKLNDTLDYECHDGYESNTGSTTGSIVCGYNGWSDLPICYERECELPKIDVHLVPDRKKDQYKVGEVLKFSCKPGFTIVGPNSVQCYHFGLSPDLPICKEQVQSCGPPPELLNGNVKEKTKEEYGHSEVVEYYCNPRFLMKGPNKIQCVDGEWTTLPVCIVEESTCGDIPELEHGWAQLSSPPYYYGDSVEFNCSESFTMIGHRSITCIHGVWTQLPQCVAIDKLKKCKSSNLIILEEHLKNKKEFDHNSNIRYRCRGKEGWIHTVCINGRWDPEVNCSMAQIQLCPPPPQIPNSHNMTTTLNYRDGEKVSVLCQENYLIQEGEEITCKDGRWQSIPLCVEKIPCSQPPQIEHGTINSSRSSQESYAHGTKLSYTCEGGFRISEENETTCYMGKWSSPPQCEGLPCKSPPEISHGVVAHMSDSYQYGEEVTYKCFEGFGIDGPAIAKCLGEKWSHPPSCIKTDCLSLPSFENAIPMGEKKDVYKAGEQVTYTCATYYKMDGASNVTCINSRWTGRPTCRDTSCVNPPTVQNAYIVSRQMSKYPSGERVRYQCRSPYEMFGDEEVMCLNGNWTEPPQCKDSTGKCGPPPPIDNGDITSFPLSVYAPASSVEYQCQNLYQLEGNKRITCRNGQWSEPPKCLHPCVISREIMENYNIALRWTAKQKLYSRTGESVEFVCKRGYRLSSRSHTLRTTCWDGKLEYPTCAKR |  | fold weaker binding than CFHR5 (iC3b): 10 fold
6 | CFHR2 (complement factor H-related protein 2), native in serum (other, Native serum protein) EAMFCDFPKINHGILYDEEKYKPFSQVPTGEVFYYSCEYNFVSPSKSFWTRITCAEEGWSPTPKCLRLCFFPFVENGHSESSGQTHLEGDTVQIICNTGYRLQNNENNISCVERGWSTPPKCRSTISAEKCGPPPPIDNGDITSFLLSVYAPGSSVEYQCQNLYQLEGNNQITCRNGQWSEPPKCLDPCVISQEIMEKYNIKLKWTNQQKLYSRTGDIVEFVCKSGYHPTKSHSFRAMCQNGKLVYPSCEEK |  | binding result [4]: binds
